This passage reports self-cleavage results from the RNAGym collection of RNA variant scans (doi:10.7554/elife.80360).

Sequences and labels used below:
B1: Hairpin Ribozyme (parent)
chain: GUCCUCUUUCACGUGCGCGUGAAAGAGAGAAGUGAACCAGAGAAACACACGUUGUGGUAUAUUACCUGGUA

In the data set the parent is B1. As to the kind of experiment: self-cleavage, relative activity (ratio to wild type); higher = more cleavage; co-transcriptional.
As to C65U U70G, the self-cleavage worked out at 0.148.

Take A49G U67A: the self-cleavage came to 0.208.

In the case of G15U C50A, the self-cleavage is 0.274.

As to A24G U58C, the self-cleavage came out at 0.804.

As to A36G U53C, the self-cleavage came to 1.08.

As to G13C, the self-cleavage is 0.681.

On to C18U G32A, for which the self-cleavage was determined as 0.124.

In the case of C48U G56A, the self-cleavage was 0.222.

On to C12G C16G, for which the self-cleavage came out at 0.806.

Regarding C3A G32C, the self-cleavage worked out at 0.114.

G57U A64G: the self-cleavage was determined as 0.202.

As to C37G A45G, the self-cleavage worked out at 0.103.

Consider C48U U52G, for which the self-cleavage is 0.311.

With C12G A41G, the self-cleavage turned out to be 0.573.

For the variant C48A A64G, the self-cleavage worked out at 0.127.

With G51A A61G, the self-cleavage turned out to be 0.269.

Turning to U14C A24U, the self-cleavage came to 0.545.

Take A39C A64C: the self-cleavage worked out at 0.193.

Take U14A A45G: the self-cleavage was determined as 0.0459.

For the variant A59C A61U, the self-cleavage stood at 0.284.

For G27C G32C, the self-cleavage came out at 0.13.

As for A24C A28G, the self-cleavage came to 1.13.

In the case of C6G A31U, the self-cleavage worked out at 0.0803.

In the case of G17C U67A, the self-cleavage was found to be 0.227.

Take G40C G57C: the self-cleavage was found to be 0.134.

Consider A23C U63G, for which the self-cleavage was 0.273.

As for G21U U70C, the self-cleavage is 0.687.

Turning to G15U A30U, the self-cleavage was determined as 0.146.

Take U14G U20A: the self-cleavage is 0.866.

In the case of U5A C12A, the self-cleavage is 0.273.

With C16A G51A, the self-cleavage came out at 0.943.

On to U7G C12U, for which the self-cleavage was 0.753.

As to G25U A26G, the self-cleavage stood at 0.421.

For the variant A39C C66A, the self-cleavage turned out to be 0.152.

Turning to C18U G40A, the self-cleavage turned out to be 0.265.

As for C16U C50A, the self-cleavage worked out at 0.295.

Take C38A G42A: the self-cleavage was found to be 0.111.

With A31C A59U, the self-cleavage was determined as 0.108.

On to U2G G57C, for which the self-cleavage amounted to 0.117.

Take G1C A41U: the self-cleavage came out at 0.229.

Regarding C16G C50A, the self-cleavage stood at 0.198.

As for U52A C65A, the self-cleavage is 1.06.

Take U58C G68C: the self-cleavage turned out to be 0.243.

On to G1A A36C, for which the self-cleavage was 0.215.

For A30G A41G, the self-cleavage is 0.112.

Turning to C46A A61U, the self-cleavage amounted to 0.171.

In the case of U5A C16U, the self-cleavage worked out at 0.475.

As for C10A C12A, the self-cleavage came to 0.476.

As for A44C C66U, the self-cleavage is 0.107.

With U2C U60C, the self-cleavage came to 0.222.

Take G27C G29C: the self-cleavage came to 0.163.

For U7A G54U, the self-cleavage is 0.589.

As to U7A G68U, the self-cleavage is 0.238.

For C6A A30C, the self-cleavage turned out to be 0.221.

On to U7G C18G, for which the self-cleavage was 0.739.

On to A59U U63C, for which the self-cleavage is 0.12.

With A26G A61U, the self-cleavage turned out to be 0.281.

With G51C G54U, the self-cleavage was found to be 0.404.

As to A26U G42C, the self-cleavage came to 0.139.

Take C10A A61G: the self-cleavage is 0.183.

Consider U8A A64U, for which the self-cleavage is 0.151.

Take U7A U62G: the self-cleavage came to 0.0626.

For U5A A47G, the self-cleavage worked out at 0.102.

Turning to G40U G51C, the self-cleavage stood at 0.104.

For A26C C46A, the self-cleavage was found to be 0.175.

With A22U C38G, the self-cleavage amounted to 0.184.

On to A11G A41G, for which the self-cleavage is 1.01.

Turning to U53G A64C, the self-cleavage is 0.0581.

Regarding A36C G42A, the self-cleavage is 0.0682.

For C18A U20G, the self-cleavage came to 0.946.

Consider G13A A39G, for which the self-cleavage was 0.279.

As for U60A C65U, the self-cleavage turned out to be 0.301.

On to A47U U63C, for which the self-cleavage came out at 0.175.

On to A11C G17C, for which the self-cleavage turned out to be 0.745.

Take A23U G69C: the self-cleavage was found to be 0.325.

On to G13A G34C, for which the self-cleavage turned out to be 1.33.

In the case of G1C U67G, the self-cleavage amounted to 0.0946.

Regarding A23C U33A, the self-cleavage amounted to 0.109.

Take U67G U70A: the self-cleavage is 0.214.

On to U14G G29A, for which the self-cleavage turned out to be 0.0483.

Consider A35C C50U, for which the self-cleavage stood at 0.438.

C66U G68U: the self-cleavage is 0.334.

On to A24U G29C, for which the self-cleavage stood at 0.115.

For U55G G69U, the self-cleavage came out at 0.25.

As to C50G U52A, the self-cleavage is 0.216.

Turning to A30U A64U, the self-cleavage worked out at 0.13.

In the case of A11G G40U, the self-cleavage is 0.149.

Turning to U2G U67A, the self-cleavage stood at 0.139.

Turning to U33G A71C, the self-cleavage was 0.307.

As to G1C G51A, the self-cleavage was found to be 0.343.

As to A44C A47G, the self-cleavage stood at 0.125.

C18A A43G: the self-cleavage was 0.085.

Turning to G25A A71U, the self-cleavage was 0.553.

For the variant G21A U62G, the self-cleavage turned out to be 0.163.

Regarding A39G C50A, the self-cleavage was 0.196.

For A45C C50A, the self-cleavage amounted to 0.209.

As for A45C G51U, the self-cleavage was 0.116.

Consider U2C A44C, for which the self-cleavage was determined as 0.0731.

Consider C18U A31G, for which the self-cleavage was found to be 0.721.

Take G15U G51U: the self-cleavage was determined as 1.22.

For A36C U70A, the self-cleavage was 0.958.

With A44U U52G, the self-cleavage is 0.121.

On to C12U G42C, for which the self-cleavage is 0.265.

Turning to G19A C50U, the self-cleavage was 0.401.

For U52A A59C, the self-cleavage amounted to 0.245.

As to A28U C46A, the self-cleavage stood at 0.0952.

In the case of G42C G69U, the self-cleavage came to 0.157.

For the variant A28G A45G, the self-cleavage amounted to 0.242.

In the case of C12G, the self-cleavage was found to be 0.827.

Regarding C10A A41U, the self-cleavage came to 1.04.

For G51C U67C, the self-cleavage is 0.182.

As for G17U U67A, the self-cleavage is 0.249.

For the variant C37G C66U, the self-cleavage turned out to be 0.286.

Turning to C6U A41G, the self-cleavage was determined as 0.768.

With U14G U63A, the self-cleavage came to 0.217.

A36C C37U: the self-cleavage was 0.148.

On to C18G A41G, for which the self-cleavage stood at 0.555.

For C16A A64C, the self-cleavage is 0.133.

With A23C A39U, the self-cleavage came out at 0.269.

Turning to U7C G25U, the self-cleavage came to 0.494.

As for C37U C38A, the self-cleavage was determined as 0.145.

On to G29A U58C, for which the self-cleavage is 0.202.

As for C3U A26U, the self-cleavage is 0.27.

Consider G27U G32A, for which the self-cleavage is 0.104.

Take U53C C66U: the self-cleavage was 0.69.

As for A22G A30U, the self-cleavage worked out at 0.0767.

With A49C G51A, the self-cleavage was 0.0757.

For the variant C6A G32A, the self-cleavage is 0.122.

With C3G G68C, the self-cleavage was found to be 0.188.

On to U33G U67C, for which the self-cleavage amounted to 0.111.

With C12G G19A, the self-cleavage came to 0.808.

On to A44G U62C, for which the self-cleavage amounted to 0.12.

Consider C4A C65U, for which the self-cleavage came out at 0.137.

In the case of C4G U60G, the self-cleavage worked out at 0.147.

As for C18G G19C, the self-cleavage amounted to 0.804.

C38G A47C: the self-cleavage was 0.128.

In the case of C3G U9G, the self-cleavage was 0.0419.

In the case of U20C G21A, the self-cleavage amounted to 0.686.

Regarding G19A G29C, the self-cleavage stood at 0.184.

G29C A31U: the self-cleavage was found to be 0.0962.

Consider C37G A61U, for which the self-cleavage came to 0.155.

As for U2G G29A, the self-cleavage is 0.168.

Turning to U9C A24C, the self-cleavage worked out at 0.657.

Take G34U G54A: the self-cleavage was 1.3.

C16A A59G: the self-cleavage is 0.085.

For C10A C66G, the self-cleavage was found to be 0.158.

With A22C A23C, the self-cleavage was 0.947.

As for A22C A23U, the self-cleavage was 0.932.

Regarding G21U A30U, the self-cleavage turned out to be 0.142.

Take U2A C37A: the self-cleavage was 0.161.

Take U33C G57U: the self-cleavage is 0.19.

On to A35U C50U, for which the self-cleavage turned out to be 0.18.

G40C C65U: the self-cleavage was determined as 0.129.

Consider G25U G68A, for which the self-cleavage amounted to 0.183.

In the case of A24G A59U, the self-cleavage was 0.153.

As for A47G A49U, the self-cleavage amounted to 0.0814.

For U5C G27U, the self-cleavage stood at 0.0794.

On to A49G G57A, for which the self-cleavage turned out to be 0.111.

G21C A30G: the self-cleavage is 0.22.

A41U U70A: the self-cleavage was found to be 0.776.

On to U53G U60C, for which the self-cleavage was 1.12.

As to C10G A26U, the self-cleavage is 0.352.

As for U5C G17A, the self-cleavage is 0.644.

For the variant C12A G69A, the self-cleavage worked out at 0.289.

With U53C A71U, the self-cleavage amounted to 0.82.

Turning to G42C U67G, the self-cleavage turned out to be 0.125.

As for G32U G54U, the self-cleavage came out at 0.0884.
